# Test results taken from the DeepSol protein solubility set.
# Test: soluble on expression in E. coli; label from the status in PepcDB or PDB records
row,Sequence,soluble on expression in E. coli
1,MDYFPIFCQLQHKACLLVGGGEIAERKARLLLDAGALVTVNACEFTPQFHHWADQGQLSLISGEFVPELLADKWLVIAATDQLSVNALVYQSANQQRIFCNVVDDPKRTSFIMPSIIDRSPIMIAVSSGGKAPVLARLLREKLEALLPQHLGQLAGNLRQRVKQHFTVMTERRRFWEKLLTHDRLAQSLANNDHVQADQHVEQLFSAPLTDRGEVVLVGAGPGDAGLLTLKGLQQIQQADVVVYDRLVSDEVMNLVRRDAERIFVGKQSGHHCVPQEQINQILLQQAQSGKRVVRLKGGDPFIFGRGGEELEELAGYGIPFSVVPGITAASGCSAYSGIPLTHRDHAQSVRLVTGHAKKEGQLDWANLAAEKQTLVFYMGLSQAGEIQQQLIQHGMPATTQVALVENGTSRHQRVVSGELSQLALLSQQVSSPSLIIVGSVVSLREKLNWFSSRHHDDQPKVTECVAHVG,not soluble
2,MDYGMYFFEHVTPYETLVRRMERVIASGKTPFQDYFLFESKGFGKVLILDKDVQSTERDEYIYHETLVHPAMLTHPEPKRVLIVGGGEGATLREVLKHPTVEKAVMVDIDGELVEVAKRHMPEWHQGAFDDPRAVLVIDDARAYLERTEERYDVVIIDLTDPVGEDNPARLLYTVEFYRLVKAHLNPGGVMGMQAGMILLTHHRVHPVVHRTVREAFRYVRSYKNHIPGFFLNFGFLLASDAFDPAAFSEGVIEARIRERNLALRHLTAPYLEAMFVLPKDLLEALEKETMVSTDQNPFYVTPEGEARQAPYKG,soluble
3,MDYLIVGAGFTGATLAERLAAAGKRVLVVDRRDHIGGNAYDEMDPHGVLVHRYGPHIFHTNSKKVFDYLSRFTEWRPYYHRVRAVVEGKEVPLPFSLATLRALFSPKLADRLEEKLIARFGYGARVPILRLREEEDPDLRFLADYVYKNVFEGYTLKQWGLRPEELSPSVTARVPVLVSHDTRYFQDAYQAMPKEGYTALFRRMLAHPNIKLLLQADWKEVEGEVKFARLVFTGPIDEFFGYLHGPLPYRSLRFRMELHPGPWAQEVGTVNYPNEHPYTRVTEFKHLTGQDYLPHSTLCYEYPEAYEPGRNEPYYPVPREENEERYRLYLEEAKKLKGVYFAGRLGDYRYYNMDQAVARALKLFEEIVHE,soluble
4,MDYLPLFADLKQRPVLIVGGGEVAARKIELLHRAGAQVWVVAQTLSSELEQQYQDGRIHWLAQDFLPEQLDNVFLVIAATNDTVLNAAVFAAADQRCILANVVDDQPLCSFIFPSIVDRSPLVVAISSSGQAPVLARILREKLEALLPTRLSDMAAIAGRWRGRVKQHMASMGERRRFWEHAFSGRFASLISRGQLTEAENELQLSLEGQHRALGEVALVGAGPGDAGLLTLRGLQVMQQADVVLYDHLVSPEVLDLVRRDAERICVGKRAGAHSVTQEATNQLLVTLAQQGKRVVRLKGGDPFIFGRGGEELQVVAQAGIPFQVVPGVTAAAGATAYAGIPLTHRDHAQSVTFITGHCRPDGDDLDWQTLARGRQTLAIYMGTVKAAAISQQLIAHGRSSTTPVAVIGRGTRVDQQVLIGTLAQLESLAQQAPTPALLVIGEVVNLHHQIAWFGQQPQTESAISPSVVNLA,not soluble
5,MDYYYSLISPPCQSAILLAKKLGITLNLKKTNVHDPVERDALTKLNPQHTIPTLVDNGHVVWESYAIVLYLVETYAKDDTLYPKDPKVRSVVNQRLFFDIGTLYKRIIDVIHLVMKKEQPSDEQMEKLKGALDLLEQFVTERAYAAADHLTVADICLLGTVTALNWLKHDLEPFPHIRAWLERVRAEMPDYEEFSKQVADDTLAYVASRK,soluble
6,MEAIDMPYKITALQPFGVIVEPKHAPIHVNELDIDELRELFLREQLVLLRGFETFEHSEQFADYCERWGEVSVWPFGRVLDLVQKEDPGDHIFDSSYMPMHWDGMYRPQVPEYQIFQCVKAPLPGHGGRTTFSHTMLALQHAPQPDLELWQQVTGHYQRKMEFYHSKTVSPIVMQHPYRDYQVIRYNEPHFEENGDLLNPPDVSLSGITPEQAIEFHKSLRRALYDPRNFYAHEWQTGDIVITDNFSLLHGREAFTSHTPRHIRRVQVLSNPPYNNPSLESYQCPQK,not soluble
7,MEALDSSSFTFPQDYEFSYVVNHNCSADGNTYCVQPVKPTTVSRFGTRYIKFDIKALPVGSPIPCKSPKEWRVIKG,not soluble
8,MECGLGGAGQPAVEAEGVWKRLGGRWVLKDVSLTVPRGSVYGVVGPNGAGKTTLFRTLLGLYRADRGRVALLGEPVERAGGSLFRRVAYLPEDGEPYRNMTGHEFLRLYASIYGVEDLEGYLEEASRLSGLGGRLGERVRSYSKGMRRRLLVAAMLALKPSLAVLDEPTAGLDPVYSVGIRRLLKEYSERHGVTVLLSSHNMYEVESVCSEITMISSGRIVYSGSPGEAVRRTGASSLEEAYVALVTGGGGES,soluble
9,MEDDPVWRFDDRDVILYNIALGATTKQLKYVYENDSDFQVIPTFGHLITFNSGKSQNSFAKLLRNFNPMLLLHGEHYLKVHSWPPPTEGEIKTTFEPIATTPKGTNVVIVHGSKSVDNKSGELIYSNEATYFIRNCQADNKVYADRPAFATNQFLAPKRAPDYQVDVPVSEDLAALYRLSGDRNPLHIDPNFAKGAKFPKPILHGMCTYGLSAKALIDKFGMFNEIKARFTGIVFPGETLRVLAWKESDDTIVFQTHVVDRGTIAINNAAIKLVGDKAKI,soluble
10,MEDENILRNAVNLQVLKFHYPEIESIIDIASHVAVYQFDVGSQKWLKTSIEGTFFLVKDQRARVGYVILNRNSPENLYLFINHPSNVHLVDRYLIHRTENQHVVGLWMFDPNDMSRIFNIVKESLLR,soluble
11,MEDGHISSWWVVDLGEEHQLMCNYYTFRQDGSRAFTRFWKFQGSMDGKTWTDLRVHEDDQTMCKAGQFASWPITAANALLPFRFFRLVLTGPTADTSTPWNFCICYLELYGYFR,not soluble
12,MEDISDPEVILEYGVYPAFIKGYTQLKANIEEALLEMSNSGQALDIYQAVQTLNAENMLLNYYESLPFYLNRQSILANMTKALKDAHIREAMAHYKLGEFAHYQDTMLDMVERTIKTF,not soluble
13,MEDKKDALISKTISMLLDNGFAVADISGQFSASFDIIARRNIERYVLKVLYNIDTLKPTTAYQLAKVAKFLRSTATIVGEKAGGGPLEDGVIYYRHGIPISSLDTFRDYINGEKPYIYSGPGGFYVKINGEALREMRMKMSLSIGYLSHYLGVSRRSVSLYENGSSATIDVFLKLQEIIKSDLVDHTDLFKIIPDNFQEEERVDDVYIQMLLDILERIGLDTKPAYRMPFDILARDEEVVSLIASLLSEEADKTKIEIMKKISSVLEDDAFLISKHSTTRENINGCPVINIVDLEKMTSKDELLRMLEKRAR,not soluble
14,MEDKVDVLIIGGGASGVTSGIQSARMGANTLILEESTWLGGMLTSAGVSAVDGNYRLPAGLWGEFKNRLSDYYGGLDSLKTGWVSNVLFEPSVGNKILHEMVAAENNLKVWKQACLEEVKRTGDEWVAKVKVEGQGVKTVRAKVMIDATELGDVAKMCGVKYDIGLEHHHHHH,soluble
15,MEDPLGRLEWIKFLSAFYDKEDKAENYFNQQVSKVMATENKVSSLKKPKVAFGMVDNGKVYIPAKNSYAAKMVDMAGGDYIFKDLNNKSGYITLEDFYSKSKDADVLIYSSSKEYTPSLKSMLSAAPILKTIKPVKNKKVWCFGKDYYQAIDKTDEIIEDLASIFHPESFKGLEHHHHHH,not soluble
16,MEDPQSKEPAGEAVALALLESPRPEGGEEPPRPSPEETQQCKFDGQETKGSKFITSSASDFSDPVYKEIAITNGCINRMSKEELRAKLSEFKLETRGVKDVLKKRLKNYYKKQKLMLKESNFADSYYDYICIIDFEATCEEGNPPEFVHEIIEFPVVLLNTHTLEIEDTFQQYVRPEINTQLSDFCISLTGITQDQVDRADTFPQVLKKVIDLMKLKELGTKYKYSLLTDGSWDMSKFLNIQCQLSRLKYPPFAKKWINIRKSYGNFYKVPRSQTKLTIMLEKLGMDYDGRPHCGLDDSKNIARIAVRMLQDGCELRINEKMHAGQLMSVSSSLPIEGTPPPQMPHFRK,soluble
17,MEEDLLGICGFDSSKKYRLEELAKYQSGSCIEFEDDDEMAVDYPCPFCSDDYDLVELCHHIDEEHQLDANNGICPVCSRRVKMHMVDHITTQHRDVFKRLYKDESYSAFSPGTRKYLQSLIDEPLSTNHTSKSVLDPLLSFIYNPPSPKKSKLVQPDSSSEASMEDNSLIRDSTEKDWESPSPLSDTELLEKAKKREFVQGLISSAIFDHIYNF,soluble
